This is an account of results in patent publication US20130078247A1.

The assay addresses cynomolgus Ang2 (cynomolgus). Put plainly: competition ELISA: cAng2 binding to cTie2.

B1: 00050 (VHH)
VHH: EVQLVESGGGLVQPGGSLRLSCAASGFTFDDYALGWFRQAPGKEREGVSCIRCSDGSTYYADSVKGRFTISSDNSKNTVYLQMNSLRPEDTAVYYCAASIVPRSKLEPYEYDAWGQGTLVTVSS
B1 had an IC50 (read off the curve) of 10 nM.
